Laboratory results published in patent US20240400614A1, “CLEAVABLE PEPTIDES AND METHODS OF USE THEREOF” (Bright Peak Therapeutics AG, priority 2023, published 2024).
Square brackets hold non-standard residues; d marks the D form. Ends that are not written are not given here. Tyr(3-NO2) = N[C@@H](Cc1ccc(O)c([N+](=O)[O-])c1)C(=O)O; Nle = CCCC[C@H](N)C(=O)O; 2Abz = Nc1ccccc1C(=O)O

Experiments:
Type in all cases: biochemical
[1] = target: uPA (Homo sapiens, UniProt P00749); assay: FRET peptide cleavage efficiency with uPA
[2] = target: T1, matriptase (Homo sapiens, UniProt Q9Y5Y6); assay: FRET peptide cleavage efficiency with matriptase
T1 construct: purchased R&D Systems 3946-SEB
T1 sequence (Q9Y5Y6 615-855 limits assumed): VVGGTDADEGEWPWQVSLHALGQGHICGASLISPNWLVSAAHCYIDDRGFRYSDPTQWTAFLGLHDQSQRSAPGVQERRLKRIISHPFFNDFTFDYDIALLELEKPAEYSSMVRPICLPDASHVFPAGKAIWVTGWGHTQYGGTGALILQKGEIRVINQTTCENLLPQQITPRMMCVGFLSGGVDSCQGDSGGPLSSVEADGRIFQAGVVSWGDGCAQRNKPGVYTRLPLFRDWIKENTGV

[3] = target: T2, MMP-2 (Homo sapiens, UniProt P08253); assay: FRET peptide cleavage efficiency with MMP-2
T2 construct: purchased SIGMA PF023
T2 sequence (P08253 110-660): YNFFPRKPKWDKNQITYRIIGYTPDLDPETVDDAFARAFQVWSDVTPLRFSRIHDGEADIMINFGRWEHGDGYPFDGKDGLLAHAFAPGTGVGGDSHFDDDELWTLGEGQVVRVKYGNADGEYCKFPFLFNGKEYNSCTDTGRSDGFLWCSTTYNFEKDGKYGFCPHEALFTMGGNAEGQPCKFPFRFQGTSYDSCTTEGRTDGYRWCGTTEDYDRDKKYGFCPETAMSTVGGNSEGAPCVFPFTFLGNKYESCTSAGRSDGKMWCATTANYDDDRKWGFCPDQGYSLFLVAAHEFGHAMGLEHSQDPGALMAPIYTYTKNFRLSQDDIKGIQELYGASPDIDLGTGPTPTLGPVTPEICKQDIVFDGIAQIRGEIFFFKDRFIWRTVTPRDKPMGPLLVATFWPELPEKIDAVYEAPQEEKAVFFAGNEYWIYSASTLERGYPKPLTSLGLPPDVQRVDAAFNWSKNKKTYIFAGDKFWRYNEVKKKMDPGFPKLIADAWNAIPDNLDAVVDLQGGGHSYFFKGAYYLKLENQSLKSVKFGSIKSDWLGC

[4] = target: T3, MMP-7 (Homo sapiens, UniProt P09237); assay: FRET peptide cleavage efficiency with MMP-7 (standard pH 7.5; also pH 6.5)
T3 construct: purchased SIGMA CC1059
T3 sequence (P09237 95-267): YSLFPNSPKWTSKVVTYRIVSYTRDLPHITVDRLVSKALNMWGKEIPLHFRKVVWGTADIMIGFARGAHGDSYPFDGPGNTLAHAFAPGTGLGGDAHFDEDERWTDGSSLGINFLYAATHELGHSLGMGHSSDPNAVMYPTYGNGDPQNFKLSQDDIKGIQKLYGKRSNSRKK

[5] = target: T4, MMP-9 (Homo sapiens, UniProt P14780); assay: FRET peptide cleavage efficiency with MMP-9 (standard pH 7.5; also pH 6.5)
T4 construct: purchased SIGMA PF024

[6] = 200 uM linker, 1 ug/ml protease, 37° C., buffer A pH 8.5
[7] = t = 60 min, 200 uM linker, 1 ug/ml protease, 37° C., buffer A pH 8.5
[8] = t = 120 min, 200 uM linker, 1 ug/ml protease, 37° C., buffer A pH 8.5
[9] = t = 15 min, 200 uM linker, 1 ug/ml protease, 37° C., buffer B pH 9.0
[10] = t = 60 min, 200 uM linker, 1 ug/ml protease, 37° C., buffer B pH 9.0
[11] = 200 uM linker, 1 ug/ml protease, 37° C., buffer B pH 9.0
[12] = t = 15 min, 200 uM linker, 1 ug/ml protease, 37° C., buffer C pH 7.5
[13] = t = 60 min, 200 uM linker, 1 ug/ml protease, 37° C., buffer C pH 7.5
[14] = t = 120 min, 200 uM linker, 1 ug/ml protease, 37° C., buffer C pH 7.5
[15] = t = 60 min, standard conditions (Table 8)
[16] = t = 120 min, standard conditions (Table 8)
[17] = t = 15 min, standard conditions (Table 8)

T4 sequence (P14780 94-707): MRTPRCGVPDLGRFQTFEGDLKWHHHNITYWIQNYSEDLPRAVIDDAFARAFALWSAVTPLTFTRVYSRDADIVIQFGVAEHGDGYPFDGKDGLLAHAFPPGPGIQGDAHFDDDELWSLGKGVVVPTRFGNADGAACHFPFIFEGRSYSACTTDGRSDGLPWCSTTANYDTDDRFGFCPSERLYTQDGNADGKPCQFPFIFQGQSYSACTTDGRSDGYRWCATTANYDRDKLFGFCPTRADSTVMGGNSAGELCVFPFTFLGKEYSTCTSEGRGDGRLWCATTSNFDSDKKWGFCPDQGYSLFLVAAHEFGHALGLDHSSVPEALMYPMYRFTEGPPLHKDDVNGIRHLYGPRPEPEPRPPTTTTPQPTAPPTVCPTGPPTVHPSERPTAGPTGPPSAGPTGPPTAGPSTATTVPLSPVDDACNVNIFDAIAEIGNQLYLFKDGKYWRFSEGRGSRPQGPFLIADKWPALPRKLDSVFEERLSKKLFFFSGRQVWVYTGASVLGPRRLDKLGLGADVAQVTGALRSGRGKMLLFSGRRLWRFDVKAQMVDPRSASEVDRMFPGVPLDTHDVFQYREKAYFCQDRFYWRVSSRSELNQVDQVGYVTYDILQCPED

Row | Substance | % cleavage uPA t = 15 min [1, 6] [%] | % cleavage uPA t = 60 min [1, 7] [%] | % cleavage uPA t = 120 min [1, 8] [%] | % cleavage Matriptase t = 15 min [2, 9] [%] | % cleavage Matriptase t = 60 min [2, 10] [%] | % cleavage Matriptase t = 120 min [2, 11] [%] | % cleavage MMP-2 t = 15 min ([3]; t = 15 min (Table 9)) [%] | % cleavage MMP-2 t = 15 min [3, 12] [%] | % cleavage MMP-2 t = 60 min ([3]; t = 60 min (Table 9)) [%] | % cleavage MMP-2 t = 60 min [3, 13] [%] | % cleavage MMP-2 t = 120 min ([3]; t = 120 min (Table 9)) [%] | % cleavage MMP-2 t = 120 min [3, 14] [%] | % cleavage MMP-7 t = 15 min ([4]; t = 15 min (Table 9)) [%] | % cleavage MMP-7 t = 60 min ([4]; t = 60 min (Table 9)) [%] | % cleavage MMP-7 t = 120 min ([4]; t = 120 min (Table 9)) [%] | % cleavage MMP-9 t = 15 min ([5]; t = 15 min (Table 9)) [%] | % cleavage MMP-9 t = 60 min ([5]; t = 60 min (Table 9)) [%] | % cleavage MMP-9 t = 120 min ([5]; t = 120 min (Table 9)) [%] | also measured
1 | SGRVANLVG (not fully specified (N-terminus, C-terminus)) [LNK017] | 1 | 6 | 12 | 29 | 81 | 96 | 89 | 90 | 97 | 99 | 100 | 99 | 62 | 96 | 100 | 43 | 94 | 100 | % cleavage uPA t = 60 min ([1]; pH 6.5, t = 60 min (Table 7)): 0%; % cleavage uPA t = 120 min ([1]; pH 6.5, t = 120 min (Table 7)): 0%; % cleavage uPA t = 60 min ([1]; pH 7.5, t = 60 min (Table 7)): 7%; % cleavage uPA t = 120 min ([1]; pH 7.5, t = 120 min (Table 7)): 13%; % cleavage Matriptase t = 15 min ([2]; pH 6.5, t = 15 min (Table 7)): 5%; % cleavage Matriptase t = 60 min ([2]; pH 6.5, t = 60 min (Table 7)): 26%; % cleavage Matriptase t = 15 min ([2]; pH 7.5, t = 15 min (Table 7)): 25%; % cleavage Matriptase t = 60 min ([2]; pH 7.5, t = 60 min (Table 7)): 68%; % cleavage MMP-2 t = 15 min ([3]; pH 6.5, t = 15 min (Table 7)): 93%; % cleavage MMP-2 t = 60 min ([3]; pH 6.5, t = 60 min (Table 7)): 100%; % cleavage MMP-2 t = 15 min ([3]; pH 7.5, t = 15 min (Table 7)): 37%; % cleavage MMP-2 t = 60 min ([3]; pH 7.5, t = 60 min (Table 7)): 100%
2 | SGRVANPLGGSG ([2Abz]SGRVANPLGGSG[Tyr(3-NO2)]-NH2) [LNK053] | 1 | 5 | 12 | 3 | 11 | 20 | 2 | 2 | 5 | 5 | 8 | 8 | 0 | 0 | 0 | 1 | 3 | 4 | –
3 | SGRVANYFGKL ([2Abz]SGRVANYFGKL[Tyr(3-NO2)]-NH2) [LNK054] | 33 | 100 | 100 | 0 | 0 | 0 | 78 | 78 | 100 | 100 | 100 | 100 | 0 | 0 | 0 | 49 | 100 | 100 | –
4 | SGRVAPQPLVD (not fully specified (N-terminus, C-terminus)) [LNK046] | – | – | – | – | – | – | 19 | – | 64 | – | 88 | – | 77 | 100 | 100 | 23 | 74 | 92 | % vcleavage uPA t = 15 min ([1]; standard conditions (Table 8)): 1%; % cleavage uPA t = 60 min [1, 15]: 4%; % cleavage uPA t = 120 min [1, 16]: 7%; % cleavage Matriptase t = 15 min [2, 17]: 19%; % cleavage Matriptase t = 60 min [2, 15]: 65%; % cleavage Matriptase t = 120 min ([2]; standard conditions (Table 8)): 91%; % cleavage MMP-2 t = 60 min [3, 15]: 64%; % cleavage MMP-2 t = 120 min [3, 16]: 88%; % cleavage MMP-7 t = 15 min [4, 17]: 77%; % cleavage MMP-7 t = 60 min [4, 15]: 100%; % cleavage MMP-7 t = 120 min [4, 16]: 100%; % cleavage MMP-9 t = 15 min [5, 17]: 23%; % cleavage MMP-9 t = 60 min [5, 15]: 74%; % cleavage MMP-9 t = 120 min [5, 16]: 92%
5 | SGRVAPY-Nle-LQG ([2Abz]SGRVAPY[Nle]LQG[Tyr(3-NO2)]-NH2) [LNK043] | – | – | – | – | – | – | 34 | – | 78 | – | 91 | – | 61 | 100 | 100 | 32 | 93 | 100 | % vcleavage uPA t = 15 min ([1]; standard conditions (Table 8)): 0%; % cleavage uPA t = 60 min [1, 15]: 0%; % cleavage uPA t = 120 min [1, 16]: 0%; % cleavage Matriptase t = 15 min [2, 17]: 24%; % cleavage Matriptase t = 60 min [2, 15]: 73%; % cleavage Matriptase t = 120 min ([2]; standard conditions (Table 8)): 100%; % cleavage MMP-2 t = 60 min [3, 15]: 78%; % cleavage MMP-2 t = 120 min [3, 16]: 91%; % cleavage MMP-7 t = 15 min [4, 17]: 61%; % cleavage MMP-7 t = 60 min [4, 15]: 100%; % cleavage MMP-7 t = 120 min [4, 16]: 100%; % cleavage MMP-9 t = 15 min [5, 17]: 32%; % cleavage MMP-9 t = 60 min [5, 15]: 93%; % cleavage MMP-9 t = 120 min [5, 16]: 100%

Continued, in another order:

Row | % cleavage uPA t = 15 min [1, 6] [%] | % cleavage uPA t = 60 min [1, 7] [%] | % cleavage uPA t = 120 min [1, 8] [%] | % cleavage Matriptase t = 15 min [2, 9] [%] | % cleavage Matriptase t = 60 min [2, 10] [%] | % cleavage Matriptase t = 120 min [2, 11] [%] | % cleavage MMP-2 t = 15 min ([3]; t = 15 min (Table 9)) [%] | % cleavage MMP-2 t = 15 min [3, 12] [%] | % cleavage MMP-2 t = 60 min ([3]; t = 60 min (Table 9)) [%] | % cleavage MMP-2 t = 60 min [3, 13] [%] | % cleavage MMP-2 t = 120 min ([3]; t = 120 min (Table 9)) [%] | % cleavage MMP-2 t = 120 min [3, 14] [%] | % cleavage MMP-7 t = 15 min ([4]; t = 15 min (Table 9)) [%] | % cleavage MMP-7 t = 60 min ([4]; t = 60 min (Table 9)) [%] | % cleavage MMP-7 t = 120 min ([4]; t = 120 min (Table 9)) [%] | % cleavage MMP-9 t = 15 min ([5]; t = 15 min (Table 9)) [%] | % cleavage MMP-9 t = 60 min ([5]; t = 60 min (Table 9)) [%] | % cleavage MMP-9 t = 120 min ([5]; t = 120 min (Table 9)) [%] | Substance | also measured
6 | 0 | 0 | 0 | 0 | 0 | 0 | 75 | 75 | 100 | 100 | 100 | 100 | 0 | 0 | 0 | 32 | 100 | 100 | SGRPLGYFGKL ([2Abz]SGRPLGYFGKL[Tyr(3-NO2)]-NH2) [LNK056] | –
7 | 2 | 6 | 12 | 22 | 70 | 92 | 72 | 85 | 100 | 99 | 100 | 99 | 11 | 43 | 70 | 10 | 43 | 67 | SGRVAGLVG ([2Abz]SGRVAGLVG[Tyr(3-NO2)]-NH2) [LNK016] | % cleavage uPA t = 60 min ([1]; pH 6.5, t = 60 min (Table 7)): 0%; % cleavage uPA t = 120 min ([1]; pH 6.5, t = 120 min (Table 7)): 0%; % cleavage uPA t = 60 min ([1]; pH 7.5, t = 60 min (Table 7)): 4%; % cleavage uPA t = 120 min ([1]; pH 7.5, t = 120 min (Table 7)): 10%; % cleavage Matriptase t = 15 min ([2]; pH 6.5, t = 15 min (Table 7)): 8%; % cleavage Matriptase t = 60 min ([2]; pH 6.5, t = 60 min (Table 7)): 24%; % cleavage Matriptase t = 15 min ([2]; pH 7.5, t = 15 min (Table 7)): 17%; % cleavage Matriptase t = 60 min ([2]; pH 7.5, t = 60 min (Table 7)): 54%; % cleavage MMP-2 t = 15 min ([3]; pH 6.5, t = 15 min (Table 7)): 84%; % cleavage MMP-2 t = 60 min ([3]; pH 6.5, t = 60 min (Table 7)): 100%; % cleavage MMP-2 t = 15 min ([3]; pH 7.5, t = 15 min (Table 7)): 87%; % cleavage MMP-2 t = 60 min ([3]; pH 7.5, t = 60 min (Table 7)): 100%
